Biological target: F-actin from chicken breast muscle (chicken, UniProt P68139 1-377)
Assay: co-sedimentation

B1: 110-kdalton protein-calmodulin complex (complex)
chain 1: MEATTSLLDAAAVGDLVMLDPLSEESLLRTLQERFSRGEIYTYIGEVVISVNPYKPLPIYTPEKVEEYHNCNFFAVKPHIYAIADDAYRSLRDRDRDQCILITGESGAGKTEASKLVMSYVAAVSSKGEEVDKVKEQLLQSNPVLEAFGNAKTIRNDNSSRFGKYMDVEFDFKGDPLGGVISNYLLEKSRIVRHVKGERNFHIFYQLLAGGSAQLLQQLKLRPDCSHYGYLNHEKSVLPGMDDAANFRAMQDAMAIIGFAPAEVTALLEVTAVVLKLGNVKLSSCFQASGMEASSITEPRELQEISQLIGLDPSTLEQALCSRTVKVRDESVLTALSVSQGYYGRDALAKNIYSRLFDWLVNRINTSIQVKPGKQRKVMGVLDIYGFEIFQDNGFEQFIINYCNEKLQQIFILMTLKEEQEEYVREGIQWTPVEFFDNSIICDLIENSKVGILAMLDEECLRPGTVNEDTFITKLNQIFASHKRYESKETLNAKHVTDVSLPLRCFRIHHYAGKVTYNVTGFIEKNNDLLFRDLSQAMWAARHTLLRSLFPEGDPQRPSLKLPPTTGSQFKASVATLMKNLYSKNPNYIRCIKPNDTKTAMLFTPDLVLAQVRYLGLMENVRVRRAGYAFRQLYQPFLERYKMLSRKTWPRWTGGDREGAEVLLAELKFPPEELAYGHTKIFIRSPRTLFDLEKRRQQRVAELATLIQKMFRGWCCRKRYQLMRKSQILISAWFRGHMQRNRYKQMKRSVLLLQAYARGWKTRRMYRRYFRSDACTRLSNFIYRRMVQKYLMGLQKNLPPMAVLDRTWPPAPYKFLSDANQELKSIFYRWKCKKYREQLTPQQRAMLQAKLCASELFKDKKALYAQSLQQPFRGEYLGLTQNRKYQKLQAVAKDKLVMAEAVQKVNRANGKTVPRLLLLTTEHLVLADPKAAQPKMVLSLCDIQGASVSRFSDGLLALHLKETSTAGGKGDLLLVSPHLIELVTRLHQTLMDATAQALPLSIADQFSTRFPKGDVAVTVVESAKGGGDVPVCKKRGSHKMEILVH
chain 2: […]
- binding result: binds
